Target: DNMT5 (Cryptococcus neoformans, UniProt J9VI03 58-2377)
Experiment: fluorescence polarization

DNMT5, sequence (J9VI03 58-2377): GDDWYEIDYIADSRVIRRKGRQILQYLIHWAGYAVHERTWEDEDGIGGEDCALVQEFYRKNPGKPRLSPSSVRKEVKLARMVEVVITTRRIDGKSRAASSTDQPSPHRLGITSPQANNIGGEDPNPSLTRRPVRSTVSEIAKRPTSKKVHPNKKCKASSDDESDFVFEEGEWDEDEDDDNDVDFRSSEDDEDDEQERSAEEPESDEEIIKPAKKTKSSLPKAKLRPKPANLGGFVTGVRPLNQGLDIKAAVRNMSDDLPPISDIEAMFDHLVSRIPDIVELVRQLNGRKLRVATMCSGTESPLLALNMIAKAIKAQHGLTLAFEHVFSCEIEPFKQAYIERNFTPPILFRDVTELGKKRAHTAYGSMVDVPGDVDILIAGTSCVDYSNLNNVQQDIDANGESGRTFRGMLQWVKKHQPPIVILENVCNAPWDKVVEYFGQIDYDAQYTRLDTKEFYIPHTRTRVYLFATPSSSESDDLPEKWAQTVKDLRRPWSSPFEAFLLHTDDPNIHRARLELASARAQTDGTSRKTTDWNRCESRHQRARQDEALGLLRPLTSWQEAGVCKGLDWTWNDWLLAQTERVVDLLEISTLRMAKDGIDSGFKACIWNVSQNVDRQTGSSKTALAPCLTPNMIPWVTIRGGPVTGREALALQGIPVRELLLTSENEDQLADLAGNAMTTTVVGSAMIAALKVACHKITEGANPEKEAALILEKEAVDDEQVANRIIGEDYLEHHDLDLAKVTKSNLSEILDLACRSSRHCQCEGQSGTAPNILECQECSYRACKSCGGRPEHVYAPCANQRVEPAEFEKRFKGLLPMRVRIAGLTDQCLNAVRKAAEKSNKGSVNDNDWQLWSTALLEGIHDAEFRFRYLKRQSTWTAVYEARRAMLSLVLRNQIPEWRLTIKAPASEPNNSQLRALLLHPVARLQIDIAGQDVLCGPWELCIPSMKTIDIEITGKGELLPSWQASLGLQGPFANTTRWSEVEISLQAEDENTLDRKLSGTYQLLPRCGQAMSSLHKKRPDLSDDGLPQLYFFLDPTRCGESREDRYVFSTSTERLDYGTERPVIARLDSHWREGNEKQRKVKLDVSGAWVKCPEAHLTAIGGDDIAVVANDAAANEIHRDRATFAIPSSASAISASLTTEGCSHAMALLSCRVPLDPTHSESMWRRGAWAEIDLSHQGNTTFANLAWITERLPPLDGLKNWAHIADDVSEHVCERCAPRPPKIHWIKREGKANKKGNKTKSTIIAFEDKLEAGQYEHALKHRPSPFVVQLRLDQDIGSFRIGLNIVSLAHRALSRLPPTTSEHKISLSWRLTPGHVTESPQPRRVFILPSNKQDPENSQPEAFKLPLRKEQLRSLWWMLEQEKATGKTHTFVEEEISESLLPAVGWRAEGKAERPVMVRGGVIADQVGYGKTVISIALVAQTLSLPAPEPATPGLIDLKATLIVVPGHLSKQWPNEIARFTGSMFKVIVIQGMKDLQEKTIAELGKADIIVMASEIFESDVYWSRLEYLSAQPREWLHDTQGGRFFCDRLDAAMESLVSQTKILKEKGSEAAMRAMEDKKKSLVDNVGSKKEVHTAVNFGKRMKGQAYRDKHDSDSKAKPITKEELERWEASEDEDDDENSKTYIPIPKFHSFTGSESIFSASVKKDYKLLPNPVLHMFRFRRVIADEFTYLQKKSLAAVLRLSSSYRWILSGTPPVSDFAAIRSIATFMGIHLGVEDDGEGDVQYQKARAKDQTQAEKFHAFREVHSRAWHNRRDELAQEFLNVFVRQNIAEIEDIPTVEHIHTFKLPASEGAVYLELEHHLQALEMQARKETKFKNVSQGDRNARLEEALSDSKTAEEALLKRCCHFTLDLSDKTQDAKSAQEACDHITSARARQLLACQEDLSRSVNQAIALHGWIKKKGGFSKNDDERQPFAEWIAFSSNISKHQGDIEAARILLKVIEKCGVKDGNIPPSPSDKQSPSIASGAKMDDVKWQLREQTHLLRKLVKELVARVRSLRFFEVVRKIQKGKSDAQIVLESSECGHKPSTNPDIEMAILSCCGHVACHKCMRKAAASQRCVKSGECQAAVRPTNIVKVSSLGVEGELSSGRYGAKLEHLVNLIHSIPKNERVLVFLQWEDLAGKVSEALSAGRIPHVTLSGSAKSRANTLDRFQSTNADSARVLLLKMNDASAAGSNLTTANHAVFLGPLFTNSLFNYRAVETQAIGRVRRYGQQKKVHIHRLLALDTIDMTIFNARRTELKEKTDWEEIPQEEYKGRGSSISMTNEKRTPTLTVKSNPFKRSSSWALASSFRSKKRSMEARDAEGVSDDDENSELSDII

B1: FAM-hmDNA (dsDNA)
DNA 1: CCATGCGCTGACACTAGAATTGCCTAAGACCATACA
DNA 2: TGTATGGTCTTAGGCAATTCTAGTGTCAGCGCATGG
modifications: 5-methylcytosine at position 30 of strand 2 (hemimethylated CpG)
binding signal: ~4 fold preference over umDNA
